For one molecule, Kd results are on record in publication PMC9215227 (Journal of Virology, 2022).

A word on the Kd: it is the equilibrium constant for the complex coming apart. Read a low Kd as a tighter complex.

The target in this assay is NP of SARS-CoV-2 (catalog no. 40588-V07E; Sino Biological) (SARS-CoV-2, UniProt P0DTC9 1-419). As to the kind of experiment: SPR; […], Biacore T200; 0.01 M HEPES pH 7.4, 0.15 M NaCl, 3 mM EDTA, 0.05% Tween 20; […]; 1:1 binding model. The settings on record: both partners purified. In general terms: In SPR one partner is held on a chip, and binding of the other changes the refractive index at the surface.

B1: 6×His-Flag-G3BP2 (natural protein)
chain: MVMEKPSPLLVGREFVRQYYTLLNKAPEYLHRFYGRNSSYVHGGVDASGKPQEAVYGQNDIHHKVLSLNFSECHTKIRHVDAHATLSDGVVVQVMGLLSNSGQPERKFMQTFVLAPEGSVPNKFYVHNDMFRYEDEVFGDSEPELDEESEDEVEEEQEERQPSPEPVQENANSGYYEAHPVTNGIEEPLEESSHEPEPEPESETKTEELKPQVEEKNLEELEEKSTTPPPAEPVSLPQEPPKAFSWASVTSKNLPPSGTVSSSGIPPHVKAPVSQPRVEAKPEVQSQPPRVREQRPRERPGFPPRGPRPGRGDMEQNDSDNRRIIRYPDSHQLFVGNLPHDIDENELKEFFMSFGNVVELRINTKGVGGKLPNFGFVVFDDSEPVQRILIAKPIMFRGEVRLNVEEKKTRAARERETRGGGDDRRDIRRNDRGPGGPRGIVGGGMMRDRDGRGPPPRGGMAQKLGSGRGTGQMEGRFTGQRR
With B1, the Kd amounted to 103 nM.
